One test concerns gp91^phox. Put plainly: gp91phox mRNA in bone marrow-derived macrophages (qRT-PCR). Type of test: cell-based, mouse. To be noted: WT BMMs; 1,000 units/ml, 24 h. Here is the method:
Nlrp3, Asc, Casp1 and Txnip mRNA expression were evaluated by qRT-PCR. Bone marrow-derived macrophages from wild-type and Ifnar1^−/− mice were incubated with or without 100 ng/ml Ultrapure LPS for 3 hours, and the mRNA expression for each gene was measured by RT-PCR using standard techniques, showing no significant differences between the samples. Similarly, cell surface expression of ATP receptor P2X7R and CD39 (nucleoside triphosphate diphosphohydrolase 1), an ectonucleotidase that hydrolyzes extracellular ATP, on wild-type and Ifnar1^−/− macrophages were determined to be equivalent by flow cytometry using standard techniques. […] Wild-type bone marrow-derived macrophages were incubated with or without 1,000 units/ml rIFNβ for 24 hours before determining levels of gp91^phox mRNA in the total RNA by qRT-PCR using standard techniques. […] DQ ovalbumin staining locates lysosomes. The proportion of cells with DQ ovalbumin leakage to cytoplasm due to ruptured lysosomes was evaluated by incubating wild-type and Ifnar1^−/− macrophages with DQ ovalbumin (10 μg/ml) alone or a combination of DQ ovalbumin (10 μg/ml) and Alum (250 μg/ml) for 1 hour. Wild-type cells were also measured with and without exposure to rIFNα.
On the technique in general: In qPCR the cycle at which signal appears reflects the starting amount.

The subject of a further test is NADPH oxidase. Description: p47phox foci (active NADPH oxidase) in bone marrow-derived macrophages, confocal microscopy. Type of test: cell-based, mouse. The note with it: WT BMMs; 1,000 units/ml 24 h pretreatment, then 5 mM ATP 1 h.
A further test has as its system mitochondrial ROS. Put plainly: ATP-induced mitochondrial ROS generation in macrophages (MITOSOX Red, flow cytometry). Type of test: cell-based. To be noted: 1,000 units/ml added 24 hr prior to 5 mM ATP for 30 min. Here is the method: This example assessed whether ROS generated by the mitochondria may play a role in NLRP3 inflammasome activation. We tested whether IFNβ suppresses ROS generated by mitochondria with MITOSOX™ Red (Invitrogen™). A time course of ATP-induced mitochondrial ROS generation in macrophages was generated using macrophages incubated with 5 mM ATP for the time indicated in FIG. 12A. Macrophages were incubated with 5 mM ATP for indicated time at 37° C. in complete RPMI medium. ROS activity increase was calculated as mean fluorescence intensity value increase (percent) of MITOSOX™ RED staining by flow cytometry. An increase of mean fluorescent intensity (MFI) of the MITOSOX™ staining is shown in FIG. 12(A, B) as the reference point of MFI at time=0 (i.e., no ATP treatment). The ROS activity increase was calculated as mean fluorescence intensity value increase (percent) of MITOSOX™ Red staining by flow cytometry (FIG. 12A).
Suppression of mitochondrial ROS generation by type-1 IFNs was examined. Cells were incubated with 5 mM ATP for 30 min rIFNα or rIFNβ (1,000 units/mL) was added 24 hr prior to the ATP treatment. […]

Another test deals with GTP-Rac1. Put plainly: GTP-Rac1 level in bone marrow-derived macrophages (western blot). Type of test: cell-based, mouse. The note with it: WT BMMs; 1,000 units/ml 24 h pretreatment, then 5 mM ATP 5, 10 or 15 min.

Consider one molecule from patent US20120177632A1, “METHODS OF OPTIMIZING DISEASE TREATMENT” (priority 2011, published 2012).

Procedure for GTP-Rac1: Bone marrow-derived macrophages obtained from wild-type mice were pretreated with 1,000 units/ml rIFNα or IFNβ for 24 hours before treatment with 5 mM ATP for 5, 10, or 15 minutes. Cells were then lysed, and total GTP-Rac1 was compared to GTP-Rac1 by western blot first using an antibody specific for GTP-Rac1, followed by membrane stripping and probing with an antibody recognizing total Rac1. GTP-Rac1 signal densitometry for each sample was normalized to total Rac1 using NIH Image/Image J software.

B1: rIFNβ: recombinant mouse IFN-β (protein, UniProt P01575 22-182, looked up)
Interferon beta: INYKQLQLQERTNIRKCQELLEQLNGKINLTYRADFKIPMEMTEKMQKSYTAFAIQEMLQNVFLVFRNNFSSTGWNETIVVRLLDELHQQTVFLKTVLEEKQEERLTWEMSSTALHLKSYYWRVQRYLKLMKYNSYAWMVVRAEIFRNFLIIRRLTRNFQN
As for B1, the “gp91phox mRNA expression” value with gp91^phox was “did not affect gp91^phox mRNA expression”. Also, the “formation of p47phox foci” value in the test on NADPH oxidase is “inhibited the formation of p47^phox foci”. Also, the “mitochondrial ROS generation” value with mitochondrial ROS is “suppressed”. In the test with GTP-Rac1, the “cellular levels of GTP-Rac1 (Rac1 activation)” value is recorded as “inhibit activation of GTP Rac1”.
